Consider one protein from publication PMC9142589, “Automated vitrification of cryo-EM samples with controllable sample thickness using suction and real-time optical inspection” (Nature Communications, 2022).

This data set concerns the molecule itself. Kind of data set: cryo-EM structure; single particle analysis; apoferritin at 2.5 µM in 150 mM NaCl, 25 mM Tris pH 7.5, 2 mM DTT; 91,000 particles; X-ray model PDB 6RJH fitted into the map.

B1: Horse spleen apoferritin (natural protein)
chain: SQIRQNYSTEVEAAVNRLVNLYLRASYTYLSLGFYFDRDDVALEGVCHFFRELAEEKREGAERLLKMQNQRGGRALFQDLQKPSQDEWGTTLDAMKAAIVLEKSLNQALLDLHALGSAQADPHLCDFLESHFLDEEVKLIKKMGDHLTNIQRLVGSQAGLGEYLFERLTLK
notes: horse spleen apoferritin; the X-ray model of horse spleen apoferritin (PDB 6RJH) was fitted into the map; source: bought: Sigma (9013-31-4), purified by gel filtration (Superdex 200 Increase 3.2/300) immediately before vitrification
For B1, the binding result is “binds”.
